Data published in PMC3182943, “Monalysin, a Novel ß-Pore-Forming Toxin from the Drosophila Pathogen Pseudomonas entomophila, Contributes to Host Intestinal Damage and Lethality” (PLoS Pathogens, 2011).

Target: the molecule itself
Test: SEC-MALS; Silica Gel KW804 column (Shodex), 10 mM Tris, 150 mM NaCl, pH 7.5, 0.5 ml/min; MALS/UV/RI with quasi-elastic light scattering; protein loaded at 0.02 mM

B1: recombinant pro-Monalysin (natural protein)
chain: MTIKEELGQPQSHSIELDEVSKEAASTRAALTSNLSGRFDQYPTKKGDFAIDGYLLDYSSPKQGCWVDGITVYGDIYIGKQNWGTYTRPVFAYLQYVETISIPQNVTTTLSYQLTKGHTRSFETSVNAKYSVGANIDIVNVGSEISTGFTRSESWSTTQSFTDTTEMKGPGTFVIYQVVLVYAHNATSAGRQNANAFAYSKTQAVGSRVDLYYLSAITQRKRVIVPSSNAVTPLDWDTVQRNVLMENYNPGSNSGHFSFDWSAYNDPHRRY
notes: Monalysin (pro-form, pore-forming toxin) of Pseudomonas entomophila L48, ORF PSEEN3174, residues 1 to 271; 30.2 kDa by MALDI-TOF, called the full-length pro-toxin; TRX-His6-TEV fusion from the vector pETG-20A, removed by His-TEV protease; The text mostly calls this protein 'Monalysin' or 'recombinant Monalysin'; upon storage at 4°C it turns partly into the shorter form; Oligomer of about 18 …
stoichiometry N: ~18 monomers
